# According to publication PMC3115387 (Proteins, 2011):
# B1: Mitomycin-7-O-methyltransferase (MmcR), recombinant N-His6-MmcR (enzyme, Streptomyces lavendulae)
# chain: MTVEQTPENPGTAARAAAEETVNDILQGAWKARAIHVAVELGVPELLQEGPRTATALAEATGAHEQTLRRLLRLLATVGVFDDLGHDDLFAQNALSAVLLPDPASPVATDARFQAAPWHWRAWEQLTHSVRTGEASFDVANGTSFWQLTHEDPKARELFNRAMGSVSLTEAGQVAAAYDFSGAATAVDIGGGRGSLMAAVLDAFPGLRGTLLERPPVAEEARELLTGRGLADRCEILPGDFFETIPDGADVYLIKHVLHDWDDDDVVRILRRIATAMKPDSRLLVIDNLIDERPAASTLFVDLLLLVLVGGAERSESEFAALLEKSGLRVERSLPCGAGPVRIVEIRRA
# modifications: selenomethionine (SeMet-labeled protein used for the crystals)
# Biological target: the molecule itself
# Test: native gel or EMSA
protein,measurement,value
B1,stoichiometry N,2
